“Also recorded” adds a separate entry of the source.
Assays:
[1] = test system: whole proteome of E. coli BL21 Star DE3; test: Western blot to detect binders in the whole proteome of E. coli BL21 Star DE3 (specificity); format: binding
Description: For the western blot analysis, the protein samples were resolved in 4-20% gradient SDS-PAGE gel, transferred to NC membrane, and subjected to the western blot analysis using the same method for the dot blot analysis.

Cas9 nuclease = target: T1, Cas9 nuclease (Streptococcus pyogenes serotype M1, UniProt Q99ZW2); test: Cas9 activity assay in vitro (RNA-guided cleavage of 510 bp human AAVS1 DNA); format: biochemical
T1 construct: made in house; host or cells: E. coli BL21 Star (DE3)
T1 sequence (Q99ZW2 whole entry): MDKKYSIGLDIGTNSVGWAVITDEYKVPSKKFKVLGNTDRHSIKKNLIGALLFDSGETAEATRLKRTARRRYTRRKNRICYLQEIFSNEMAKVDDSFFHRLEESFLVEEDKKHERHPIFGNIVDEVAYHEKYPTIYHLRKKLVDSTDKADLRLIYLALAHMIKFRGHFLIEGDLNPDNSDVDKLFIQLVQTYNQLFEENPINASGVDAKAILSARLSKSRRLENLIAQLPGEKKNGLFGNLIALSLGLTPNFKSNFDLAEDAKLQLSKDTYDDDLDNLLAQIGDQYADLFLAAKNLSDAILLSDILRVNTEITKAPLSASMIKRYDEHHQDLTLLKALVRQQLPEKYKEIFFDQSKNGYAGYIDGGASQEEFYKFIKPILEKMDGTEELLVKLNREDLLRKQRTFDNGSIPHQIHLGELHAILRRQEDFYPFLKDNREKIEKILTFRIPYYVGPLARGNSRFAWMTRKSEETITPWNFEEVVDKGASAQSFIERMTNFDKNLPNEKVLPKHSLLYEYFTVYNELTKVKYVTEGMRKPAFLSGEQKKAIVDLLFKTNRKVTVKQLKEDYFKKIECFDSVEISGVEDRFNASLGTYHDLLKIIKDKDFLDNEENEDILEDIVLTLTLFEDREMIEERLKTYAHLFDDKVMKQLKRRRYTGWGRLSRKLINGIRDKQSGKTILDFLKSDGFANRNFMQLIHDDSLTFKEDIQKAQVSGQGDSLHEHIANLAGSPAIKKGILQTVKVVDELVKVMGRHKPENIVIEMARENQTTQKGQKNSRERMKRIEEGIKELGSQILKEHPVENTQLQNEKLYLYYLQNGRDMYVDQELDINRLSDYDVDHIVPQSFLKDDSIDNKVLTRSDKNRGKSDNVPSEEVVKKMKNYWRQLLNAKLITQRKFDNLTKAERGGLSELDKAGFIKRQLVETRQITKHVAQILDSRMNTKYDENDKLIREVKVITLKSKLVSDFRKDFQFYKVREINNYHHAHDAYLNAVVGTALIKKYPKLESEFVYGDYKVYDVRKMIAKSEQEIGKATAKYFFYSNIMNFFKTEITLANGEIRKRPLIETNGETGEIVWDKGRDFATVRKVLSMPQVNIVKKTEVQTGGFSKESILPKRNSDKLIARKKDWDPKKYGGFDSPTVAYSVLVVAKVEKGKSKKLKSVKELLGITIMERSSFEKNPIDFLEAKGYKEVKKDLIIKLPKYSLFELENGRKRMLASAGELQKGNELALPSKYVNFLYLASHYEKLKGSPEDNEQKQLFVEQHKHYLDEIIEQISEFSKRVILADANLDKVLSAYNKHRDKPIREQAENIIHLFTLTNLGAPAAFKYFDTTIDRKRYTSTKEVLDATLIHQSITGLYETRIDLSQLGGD
Description: The sgRNA targeting human AAVS1 region (target sequence […] (SEQ ID NO: 36), PAM sequence underlined) was synthesized by in vitro transcription using a 118 bp PCR-assembled DNA fragment AAVS1_T23826 as template, following the manufacturer's protocol [Thermo Fisher Scientific, TranscriptAid T7 High Yield Transcription Kit, catalog #K0441]. The sgRNA product was purified using the GeneJET RNA Purification Micro Column [Thermo Fisher Scientific, catalog #K0841].
A 510 bp human AAVS1 region was amplified from HEK293 genomic DNA by PCR using a primer set (CH1161 and CH1162) and used as a target DNA for the in vitro CRISPR/Cas9 assay. Performance of the Cas9 protein was assessed in various concentrations of Cas9 [100, 50, 25, 12.5, and 0 ng] in presence or absence of sgRNA and peptides (PTD14 (SEQ ID NO: 11) and PTD16 (SEQ ID NO: 30)) in the 1× buffer K [20 mM Tris-HCl, pH 8.5, 10 mM MgCl2, 1 mM Dithiothreitol (DTT), and 100 mM KCl]. The PTD16 (SEQ ID NO: 30) was used as an unrelated peptide control. The reaction mixture was incubated at 37° C. for 15 minutes. The reaction was stopped by adding a stop buffer [1 mM Tris-HCl (pH 7.5), 10 mM EDTA, 6.5% (w/v) Sucrose, 0.03% (w/v) Bromophenol Blue] and heat inactivated at 75° C. for 5 minutes. The reaction samples were resolved in 4% agarose gel.

Cas9 protein [2] = target: T2, Cas9 protein (Streptococcus pyogenes serotype M1, UniProt Q99ZW2); test: Dot blot to detect whole Cas9 protein (non-denatured); format: binding; details: Cas9 (no tag)
T2 construct: made in house; host or cells: E. coli BL21 Star (DE3)
T2 sequence (Q99ZW2 whole entry): as above
Procedure: (§1) Finally, the blot was incubated with the chromogenic substrates.

Cas9 protein [3] = target: T2, Cas9 protein; test: Western blot to detect whole Cas9 protein (denatured); format: binding; details: Cas9 (no tag), 4-20% SDS-PAGE
Procedure: as §1

[4] = target: T3, Cas9 target sequence (PTD12, EKLYLYYLQ, Helix: E813 to Q821) (Streptococcus pyogenes serotype M1, UniProt Q99ZW2); test: Dot blot to detect the Cas9 target sequence peptide PTD12; format: binding; details: for interaction of His-tagged synthetic CAAP oligopeptide with the target peptide PTD12: dot blot, peptide as 1st Ab, Anti-6His Ab-HRP detection
T3 construct: […]; purchased Peptide 2.0
Procedure: as §1
For the image processing, we used Adobe Photoshop 7.0. Quantitative image analysis of the digital images was carried out using measuring tools of imaging software ImageJ (Schneider et al. 2012). Image analysis results were calculated by averaging data from three independent experiments.

[5] = target: control peptide (PTD8, unrelated peptide) (Escherichia coli, UniProt P00634); details: dot blot, unrelated target (negative control)
Procedure: For dot blot analysis, 1 μl (2.5 μg) or 2 μl (5 μg) of samples were spotted onto the nitrocellulose (NC) membrane and dried completely. Then, non-specific sites were blocked by soaking the membrane in the blocking solution made for NC membranes [Thermo Fisher Scientific, WesternBreeze™ Blocker/Diluent (Part A and B), catalog #WB7050]. The membrane was washed twice with water (1 ml per cm^2 membrane), and incubated with the 1st antibody (Ab) in a binding/wash (BW) buffer [50 mM sodiumphosphate, pH 8.0, 300 mM NaCl, and 0.01% Tween 20] for 1 h. The membrane was washed 4 times (for 2 minutes per wash) with the wash buffer [Thermo Fisher Scientific, WesternBreeze™ Wash Solution, catalog #WB7003]. If the 1st oligopeptide was Anti-Cas9 Ab-HRP conjugate [Thermo Fisher Scientific, catalog #MAC133P] or the peptide-AP fusions, the membrane was washed twice with water, and incubated with the chromogenic substrates, Chromogenic Substrate (TMB) [Thermo Fisher Scientific, catalog #WP20004] for HRP and NBT/BCIP substrate solution for AP [Thermo Fisher Scientific, catalog #34042]. Otherwise, the membrane was incubated with in the blocking solution for 1 h. To detect His-tagged peptide and proteins, the Anti-6His Ab-HRP conjugate [Thermo Fisher Scientific, catalog 46-0707] was used. Then the membrane was washed four times with the wash buffer and two times with water. […]

[6] = target: alkaline phosphatase target sequence (PTD8, […]) (Escherichia coli, UniProt P00634); details: dot blot, coil-beta sheet-coil target
Procedure: For dot blot analysis, 1 μl (2.5 μg) or 2 μl (5 μg) of samples were spotted onto the nitrocellulose (NC) membrane and dried completely. Then, non-specific sites were blocked by soaking the membrane in the blocking solution made for NC membranes [Thermo Fisher Scientific, WesternBreeze™ Blocker/Diluent (Part A and B), catalog #WB7050]. The membrane was washed twice with water (1 ml per cm^2 membrane), and incubated with the 1st antibody (Ab) in a binding/wash (BW) buffer [50 mM sodiumphosphate, pH 8.0, 300 mM NaCl, and 0.01% Tween 20] for 1 h. The membrane was washed 4 times (for 2 minutes per wash) with the wash buffer [Thermo Fisher Scientific, WesternBreeze™ Wash Solution, catalog #WB7003]. If the 1st oligopeptide was Anti-Cas9 Ab-HRP conjugate [Thermo Fisher Scientific, catalog #MAC133P] or the peptide-AP fusions, the membrane was washed twice with water, and incubated with the chromogenic substrates, Chromogenic Substrate (TMB) [Thermo Fisher Scientific, catalog #WP20004] for HRP and NBT/BCIP substrate solution for AP [Thermo Fisher Scientific, catalog #34042]. Otherwise, the membrane was incubated with in the blocking solution for 1 h. To detect His-tagged peptide and proteins, the Anti-6His Ab-HRP conjugate [Thermo Fisher Scientific, catalog 46-0707] was used. Then the membrane was washed four times with the wash buffer and two times with water. Finally, the blot was incubated with the chromogenic substrates.

[7] = target: T4, PDGF-β target sequence (PTD10, […]) (Homo sapiens, UniProt P01127); test: Dot blot to detect the PDGF-β target sequence PTD10; format: binding; details: beta sheet target
T4 construct: […]; purchased Peptide 2.0
Procedure: as §1

## LLQVDVILLCYPENLEQIKIRLFGSGSHHHHHH [PTD14]
[1]
  number of major bands detected in E. coli whole cell lysate: one
  number of minor bands detected in E. coli whole cell lysate: 4
Cas9 nuclease; 510 bp AAVS1 DNA, 37° C. 15 minutes, PTD16 as unrelated peptide control
  effect on RNA-guided DNA cleavage by Cas9 nuclease: no significant effect
Cas9 nuclease; presence or absence of gRNA, various Cas9 concentrations
  non-specific DNA binding activity of the Cas9 protein directed by the peptide: significant induction; also recorded: very strong
Cas9 protein [2]
  detection of whole Cas9 protein in dot blot: able to detect
Cas9 protein [3]
  detection of whole Cas9 protein in western blot: able to detect
[4]; dot blot densitometry, dimer vs monomer
  strength of interaction with PTD12 relative to monomer PTD13: stronger (two-fold)
[4]
  interaction of His-tagged synthetic CAAP oligopeptide with the target peptide PTD12: could interact
[5]
  interaction of His-tagged synthetic CAAP oligopeptide with the control peptide PTD8: no interaction

## LEQIKIRLFGSGSHHHHHH [PTD13]
[1]
  number of major bands detected in E. coli whole cell lysate: one
  number of minor bands detected in E. coli whole cell lysate: 2
Cas9 protein [2]
  detection of whole Cas9 protein in dot blot: unable to detect
Cas9 protein [3]
  detection of whole Cas9 protein in western blot: unable to detect
[4]
  interaction of His-tagged synthetic CAAP oligopeptide with the target peptide PTD12: could interact; also recorded: detected
[5]
  interaction of His-tagged synthetic CAAP oligopeptide with the control peptide PTD8: no interaction

## EYRLYLRALCYPENLSRAYLSYEGSGSHHHHHH [PTD16]
[6]
  interaction with the AP target oligopeptide PTD8: bound to the target

## GSGSHHHHHH [PTD20, reference compound]
[7]
  interaction with the PDGF-β target oligopeptide PTD10: no detectable interaction
[6]
  interaction with the AP target oligopeptide PTD8: no detectable interaction

## DLDYAQLRDKCYPENEDRLQSYDLDGSGSHHHHHH [PTD18, His-tagged CAAP oligopeptide dimer, parallel and antiparallel, against PDGF-β]
[7]
  interaction with the PDGF-β target oligopeptide PTD10: bound to the target

## LSRAYLSYEGSGSHHHHHH [PTD15]
[6]
  interaction with the AP target oligopeptide PTD8: no detectable interaction

## EDRLQSYDLDGSGSHHHHHH [PTD17, His-tagged CAAP oligopeptide monomer, antiparallel, against PDGF-β]
[7]
  interaction with the PDGF-β target oligopeptide PTD10: no detectable interaction

Reference: patent US20210017226A1, “METHOD OF GENERATING INTERACTING PEPTIDES” (Peption, LLC, priority 2017, published 2021)
